Data published in the Human Domainome abundance scans (Beltran et al. 2025).
± gives the uncertainty stated by the source.

B1: Zinc finger MYM-type protein 6, residues 427 to 504; numbered along this chain, O95789 (parent)
chain: KLKCQHCNHLFATKPELLFYKGKMFLFCGKNCSDEYKKKNKVVAMCDYCKLQKIIKETVRFSGVDKPFCSEVCKFLSA

Variants of: B1
Assay: abundance fitness (aPCA) (normalised: wild type 0, dead -1); higher = more abundant; growth selection in yeast, the domain comes from the species named
Conditions: Homo sapiens

Variant	abundance fitness
E35T	-0.127 ± 0.092
E35W	-0.11 ± 0.038
E35V	-0.07 ± 0.035
E35A	-0.024 ± 0.029
K21G	0.019 ± 0.029
K21C	-0.036 ± 0.047
K21Y	-0.099 ± 0.042
R60Q	0.014 ± 0.16
R60L	-0.309 ± 0.13
R60C	-0.059 ± 0.1
L10F	0.107 ± 0.14
L10D	-0.002 ± 0.077
L10K	0.017 ± 0.039
L10Q	0.023 ± 0.04
Q5E	-0.33 ± 0.054
Q5L	-0.118 ± 0.039
Q5W	-0.206 ± 0.04
Q5G	-0.041 ± 0.027
Q5Y	-0.057 ± 0.085
D65G	-0.488 ± 0.1
D65I	-0.666 ± 0.3
D65T	-0.208 ± 0.36
C49D	-0.718 ± 0.14
V43H	-0.763 ± 0.22

Variant	abundance fitness
V43R	-0.224 ± 0.13
K74A	-0.025 ± 0.12
K74N	-0.996 ± 0.23
K53F	0.088 ± 0.36
K53R	-0.308 ± 0.096
K53C	0.367 ± 0.12
K53A	-0.126 ± 0.13
K53G	-0.148 ± 0.067
E16P	-0.414 ± 0.045
E16C	-0.102 ± 0.045
E16V	-0.109 ± 0.034
E16K	0.002 ± 0.032
I55G	0.16 ± 0.063
I55R	-0.055 ± 0.077
I55S	0.305 ± 0.088
I55V	0.32 ± 0.07
I55H	0.164 ± 0.15
I55T	0.161 ± 0.1
I55E	0.197 ± 0.12
D34G	-0.078 ± 0.029
D34L	-0.14 ± 0.038
D34R	-0.068 ± 0.032
S33Q	0.017 ± 0.053
S33V	-0.054 ± 0.03

Variant	abundance fitness
S33Y	-0.14 ± 0.4
F11P	-0.049 ± 0.037
F11H	-0.354 ± 0.088
F11I	-0.25 ± 0.13
F11M	-0.134 ± 0.054
E71T	0.076 ± 0.1
E71N	0.491 ± 0.44
E71H	-0.09 ± 0.39
T58P	-0.328 ± 0.21
T58E	-0.277 ± 0.14
T58H	0.511 ± 0.41
T58K	0.055 ± 0.44
T58A	-0.585 ± 0.11
T58R	0.019 ± 0.071
T58L	-0.546 ± 0.45
P15F	-0.478 ± 0.085
P15T	-0.132 ± 0.045
P15A	-0.075 ± 0.03
P15W	-0.534 ± 0.041
P15M	-0.335 ± 0.056
K66V	0.542 ± 0.081
K66A	-0.292 ± 0.23
K66C	-0.635 ± 0.33
K66L	-0.889 ± 0.4

Variant	abundance fitness
L17G	-0.042 ± 0.03
L17C	-0.011 ± 0.046
L17W	0.065 ± 0.03
L17S	0.117 ± 0.04
N40L	-0.191 ± 0.077
N40H	-0.104 ± 0.057
N40C	-0.135 ± 0.052
N40S	0.049 ± 0.053
N40D	0.019 ± 0.06
C46T	-0.311 ± 0.18
C46R	-0.331 ± 0.099
C46E	-0.674 ± 0.13
C46I	0.329 ± 0.44
C46W	0.056 ± 0.11
C46D	-0.531 ± 0.15
C46K	0.241 ± 0.13
S62V	-0.536 ± 0.13
S62C	-0.072 ± 0.14
C28S	-0.969 ± 0.11
C28R	-0.877 ± 0.065
C28V	-1.1 ± 0.11
C28E	-0.671 ± 0.079
V72T	0.216 ± 0.1
V72L	0.003 ± 0.12

Variant	abundance fitness
V72Y	0.757 ± 0.3
V72K	0.775 ± 0.19
V72C	0.553 ± 0.2
F75S	0.48 ± 0.14
F75A	0.488 ± 0.079
F75D	0.671 ± 0.11
F75G	0.484 ± 0.061
I54R	0.157 ± 0.068
I54V	0.131 ± 0.076
I54A	0.557 ± 0.068
I54K	0.356 ± 0.17
K3W	-0.243 ± 0.042
K3M	-0.192 ± 0.051
K3T	-0.102 ± 0.046
H6R	-0.03 ± 0.029
H6M	0.033 ± 0.044
H6V	-0.074 ± 0.03
H6C	-0.046 ± 0.056
H6E	0.008 ± 0.034
H6F	-0.14 ± 0.062
C73P	-1.51 ± 0.47
C73Q	-0.944 ± 0.32
C73A	-0.627 ± 0.12
C73M	-0.142 ± 0.15

Variant	abundance fitness
F19P	0.101 ± 0.037
F19E	0.129 ± 0.031
F19S	0.033 ± 0.039
F19Q	0.081 ± 0.048
F19G	-0.053 ± 0.03
F19K	0.182 ± 0.05
F19I	-0.152 ± 0.34
D47C	-0.16 ± 0.16
D47S	0.311 ± 0.082
D47N	-0.327 ± 0.19
D47W	0.424 ± 0.072
D47E	-0.125 ± 0.13
D47I	-0.306 ± 0.46
Q52T	0.181 ± 0.09
H9A	0.005 ± 0.032
H9N	-0.011 ± 0.078
H9Y	0.015 ± 0.49
H9Q	0.049 ± 0.041
H9G	0.014 ± 0.028
L26T	0.035 ± 0.048
L26M	-0.015 ± 0.056
L26N	0.097 ± 0.058
C7E	-0.722 ± 0.066
F61A	0.209 ± 0.073

Variant	abundance fitness
F61H	-0.151 ± 0.41
F61W	0.313 ± 0.091
F61I	0.679 ± 0.22
F61L	0.302 ± 0.09
F61G	-0.002 ± 0.079
F61C	0.561 ± 0.085
F27C	-0.025 ± 0.068
F27K	-0.727 ± 0.17
F27H	-0.405 ± 0.069
F27I	-0.365 ± 0.15
F27M	-0.066 ± 0.043
F27R	-0.805 ± 0.04
F27L	-0.073 ± 0.037
F27W	-0.372 ± 0.049
F27N	-0.512 ± 0.19
V59A	-0.078 ± 0.095
V59L	0.051 ± 0.13
V59Y	-0.536 ± 0.42
V59D	-0.246 ± 0.21
V59M	0.461 ± 0.24
V59S	-0.314 ± 0.12
V59K	-0.051 ± 0.11
V59T	0.204 ± 0.18
